B1: Vacuolar protein sorting-associated protein 4A (Homo sapiens), Q9UN37 (parent)
chain: MTTSTLQKAIDLVTKATEEDKAKNYEEALRLYQHAVEYFLHAIKYEAHSDKAKESIRAKCVQYLDRAEKLKDYLRSKEKHGKKPVKENQSEGKGSDSDSEGDNPEKKKLQEQLMGAVVMEKPNIRWNDVAGLEGAKEALKEAVILPIKFPHLFTGKRTPWRGILLFGPPGTGKSYLAKAVATEANNSTFFSVSSSDLMSKWLGESEKLVKNLFELARQHKPSIIFIDEVDSLCGSRNENESEAARRIKTEFLVQMQGVGNNNDGTLVLGATNIPWVLDSAIRRRFEKRIYIPLPEEAARAQMFRLHLGSTPHNLTDANIHELARKTEGYSGADISIIVRDSLMQPVRKVQSATHFKKVCGPSRTNPSMMIDDLLTPCSPGDPGAMEMTWMDVPGDKLLEPVVCMSDMLRSLATTRPTVNADDLLKVKKFSEDFGQES
partner: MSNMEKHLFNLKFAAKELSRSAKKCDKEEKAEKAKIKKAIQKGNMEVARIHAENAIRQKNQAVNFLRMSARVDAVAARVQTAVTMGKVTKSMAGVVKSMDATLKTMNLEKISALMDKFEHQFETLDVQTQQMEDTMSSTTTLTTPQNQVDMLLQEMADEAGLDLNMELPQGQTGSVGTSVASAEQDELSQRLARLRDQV
B2: Charged multivesicular body protein 1b (Homo sapiens), Q7LBR1 (parent)
chain: B1 partner
partner: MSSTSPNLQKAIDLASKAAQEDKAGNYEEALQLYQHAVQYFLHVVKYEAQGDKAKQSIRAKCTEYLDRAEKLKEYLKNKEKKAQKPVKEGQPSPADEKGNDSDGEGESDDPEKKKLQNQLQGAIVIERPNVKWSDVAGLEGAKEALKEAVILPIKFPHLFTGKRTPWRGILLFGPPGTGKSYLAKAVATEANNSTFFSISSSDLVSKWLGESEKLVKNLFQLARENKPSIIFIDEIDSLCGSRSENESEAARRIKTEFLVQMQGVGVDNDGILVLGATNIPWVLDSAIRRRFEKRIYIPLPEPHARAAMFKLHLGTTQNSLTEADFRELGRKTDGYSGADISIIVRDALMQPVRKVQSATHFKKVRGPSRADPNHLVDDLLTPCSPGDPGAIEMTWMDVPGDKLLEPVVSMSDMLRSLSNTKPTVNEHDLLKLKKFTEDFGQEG

Variants of: B1
Conditions: with chm1b_human CHMP1B

| effect of a mutation on the interaction | Variant |
| --- | --- |
| disrupting interaction strength | MTTSTLQKAIDLVTKATEEDKAKNYEEALRLYQHAVEYFLHAIKYEAHSDKAKESIRAKCVQYDDRAEKLKDYLRSKEKHGKKPVKENQSEGKGSDSDSEGDNPEKKKLQEQLMGAVVMEKPNIRWNDVAGLEGAKEALKEAVILPIKFPHLFTGKRTPWRGILLFGPPGTGKSYLAKAVATEANNSTFFSVSSSDLMSKWLGESEKLVKNLFELARQHKPSIIFIDEVDSLCGSRNENESEAARRIKTEFLVQMQGVGNNNDGTLVLGATNIPWVLDSAIRRRFEKRIYIPLPEEAARAQMFRLHLGSTPHNLTDANIHELARKTEGYSGADISIIVRDSLMQPVRKVQSATHFKKVCGPSRTNPSMMIDDLLTPCSPGDPGAMEMTWMDVPGDKLLEPVVCMSDMLRSLATTRPTVNADDLLKVKKFSEDFGQES [L64D] |
| decreasing interaction strength | MTTSTLQKAIDLVTKATEEDKAKNYEEALRLYQHAVEYFLHAIKYEAHSDKAKESIRAKCVQYADRAEKLKDYLRSKEKHGKKPVKENQSEGKGSDSDSEGDNPEKKKLQEQLMGAVVMEKPNIRWNDVAGLEGAKEALKEAVILPIKFPHLFTGKRTPWRGILLFGPPGTGKSYLAKAVATEANNSTFFSVSSSDLMSKWLGESEKLVKNLFELARQHKPSIIFIDEVDSLCGSRNENESEAARRIKTEFLVQMQGVGNNNDGTLVLGATNIPWVLDSAIRRRFEKRIYIPLPEEAARAQMFRLHLGSTPHNLTDANIHELARKTEGYSGADISIIVRDSLMQPVRKVQSATHFKKVCGPSRTNPSMMIDDLLTPCSPGDPGAMEMTWMDVPGDKLLEPVVCMSDMLRSLATTRPTVNADDLLKVKKFSEDFGQES [L64A] |

Variants of: B2
Conditions: with vps4b_human VPS4B

| effect of a mutation on the interaction | Variant |
| --- | --- |
| decreasing interaction strength | MSNMEKHLFNLKFAAKELSRSAKKCDKEEKAEKAKIKKAIQKGNMEVARIHAENAIRQKNQAVNFLRMSARVDAVAARVQTAVTMGKVTKSMAGVVKSMDATLKTMNLEKISALMDKFEHQFETLDVQTQQMEDTMSSTTTLTTPQNQVDMLLQEMADEAGLDLNMELPQGQTGSVGTSVASAEQDELSQRAARLRDQV [L192A] |
| decreasing interaction strength | MSNMEKHLFNLKFAAKELSRSAKKCDKEEKAEKAKIKKAIQKGNMEVARIHAENAIRQKNQAVNFLRMSARVDAVAARVQTAVTMGKVTKSMAGVVKSMDATLKTMNLEKISALMDKFEHQFETLDVQTQQMEDTMSSTTTLTTPQNQVDMLLQEMADEAGLDLNMELPQGQTGSVGTSVASAEQDEASQRLARLRDQV [L188A] |

— IntAct's records for PubMed 17928862
